Where two headings read alike, the source gives them in different places. Where a SMILES comes first, the peptide text is derived from it. Where no end group is shown, it is not given here. The star is where a group is joined. 2Furoyl = O=C(c1ccco1)*; Butyryl = CCCC(=O)*
Experiments:
[1] = molecular target: T1, ENL YEATS domain (His-ENL) (Homo sapiens, UniProt Q03111); test: Biolayer interferometry (BLI) binding to ENL YEATS; settings: ratio KD,AF9 / KD,ENL
T1 construct: (aa 1−148) was cloned in pET19b; made in house; host or cells: E. coli BL21(DE3pLysS)
T1 sequence (Q03111 1-148): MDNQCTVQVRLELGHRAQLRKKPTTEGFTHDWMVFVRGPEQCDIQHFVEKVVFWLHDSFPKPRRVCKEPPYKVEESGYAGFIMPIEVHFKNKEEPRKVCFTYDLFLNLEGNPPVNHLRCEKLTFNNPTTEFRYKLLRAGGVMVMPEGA
From the text: To test the inhibition potency of the two selected peptides for the ENL YEATS domain, ENL-S1 and ENL-S2 were chemically synthesized through solid-phase peptide synthesis (SPPS) and evaluated by an AlphaScreen assay. In this assay, a biotinylated H3K27cr peptide and a 6xHis-tagged ENL YEATS domain (His-ENL YEATS) were immobilized on PerkinElmer streptavidin donor and nickel-chelating (Ni-NTA) acceptor beads, respectively. The use of a His-ENL YEATS instead of the original AviSUMO-ENL YEATS construct in the assay prevents potential false positive results derived from ligands which bind to the SUMO protein but not to the ENL YEATS domain. […] We then assessed the binding affinity of two ligands for the ENL YEATS domain using biolayer interferometry (BLI). Briefly, His-ENL was immobilized onto Ni-NTA functionalized biosensors to measure the binding kinetics of target peptides at different concentrations. […] As a small peptide directly selected from a phage display library, this level of high potency was unexpected. […] However, shorter-than-10-mer linear peptides with nanomolar binding potency have rarely been directly selected from phage display libraries. One example was S2P03, a 7-mer peptide that has a KD value as 49 ± 9 nM to bind to SIRT2.[10] This peptide contained BuK and was identified also from a BuK-containing phage display library using the active site-directed ligand selection technique. Taken together, the two examples confirmed that utilizing phage display libraries incorporated with a ncAA serving as a ligand for a protein target for active site-directed ligand selection is a successful method for identifying ultrahigh potency ligands for epigenetic proteins including both enzymes and readers. For ENL-S1 and ENL-S2, their determined kon and koff values were 6.23 ± 0.07 × 10^4 M^–1 s^–1, […] and […], 5.54 ± 0.02 × 10^–3 s^–1, respectively. Compared to ENL-S2, ENL-S1 has faster binding to the ENL YEATS domain and slower release from it, indicating its potential long-term action on the ENL YEATS inhibition. […]
Biolayer Interferometry to Validate ENL Ligands:
His-ENL, His-AF9 (aa 1-149, EpiCypher), His-GAS41 (aa 15-160, EpiCypher), and YEATS2-His (aa 200-345, EpiCypher) were reconstituted in water and diluted into assay buffer (20mM Tris, 300 mM NaCl, pH 7.9) for immobilization onto Octet Ni-NTA biosensors (Sartorius). Lyophilized peptides were dissolved in DMF and diluted to designated concentrations in assay buffer. Biolayer interferometry assays were performed in 96 well plates (GreinerBio-One, polypropylene, flat-bottom) using an Octet Red96 System (Sartorius). Wells were filled with 200 μL of assay buffer, blocking buffer (assay buffer + 0.1% BSA), protein solution, peptide solution, regeneration solution, and reload solution. For immobilization, His-tagged proteins were immobilized onto Ni-NTA sensors at 20 for 600 s. Sensors were then dipped into blocking buffer for 180 s, assay […] buffer for 300 s, peptide solution for 300 s, and back to assay buffer for 300 s. If multiple samples were tested, Ni-NTA sensors can be reconditioned in regeneration (10 mM glycine, pH 1.7) solution followed by reload solution (10 mM NiCl2) for 30 and 60 s, respectively. Measurements were carried out at 30 °C. Data were analyzed within the ForteBio Data Analysis software. Data were processed by double subtracting ligand only and protein only reference wells and aligning the data to the beginning of the association. Then, global kinetic fit was performed for all sensogram curves with a 1:1 model. Steady state KD values were reported.
AlphaScreen Assay with Biotinylated-ENL-S1:
The AlphaScreen assay was carried out in 384-well plates. Manual assay setup was performed in a 40 uL reaction buffer (50 mM HEPES pH 7.4, 100 mM NaCl, 0.1% bovine serum albumin, and 0.05% CHAPS). 10 µL of varying concentrations of His-ENL YEATS (0-300 nM) and 10 µL of […]

[2] = molecular target: T2, NanoLuc-ENL YEATS expressed in HEK293T cells (Homo sapiens, UniProt Q03111); test: ENL-NanoBRET cellular target engagement assay with tracer SR-0813T; format: cell-based
T2 construct: The complementary DNA encoding ENL YEATS (aa 1-148) was cloned into pCDH-EF1-Nluc; expressed in transfected cells
T2 sequence (Q03111 1-148): T1 sequence (Q03111 1-148)
From the text: For peptides developed for intracellular targets, a common concern is their cellular permeability to engage the targets. For the ENL YEATS domain that is a nuclear protein, its inhibitors will also need to translocate to the nucleus to exert their inhibition activities. […] We attached FITC to tENL-S1o to afford FITC-tENL-S1o that could be fluorescently imaged. […] Although results from this pilot study were very encouraging, the conjugated FITC could have assisted the cellular penetration process. A more accurate assay was needed for the use of unmodified peptides. In light of this, we proceeded to use a NanoBRET assay to evaluate whether our developed peptides could permeate into cells and engage the ENL YEATS domain in the cellular melieu.[46] The NanoBRET assay is an emerging cutting-edge technique that is robust and sensitive in assessing not just cellular permeability of a developed ligand but also the ligand engagement with its protein target in the cellular environment. A significant advantage of the NanoBRET assay over the fluorophore conjugation and other approaches is allowing intact ligands to be used. […] There are three components required to gauge the peptide inhibitory potency for ENL expressed in cells through NanoBRET assays: (1) an ENL YEATS-NanoLuc luciferase fusion protein, (2) a NanoLuc luciferase substrate, and (3) a fluorescent tracer that binds specifically and reversibly to the reader channel of ENL YEATS. […] The cellular potency of peptides can be determined through the decrease in BRET as test peptides engage the ENL YEATS domain and displace the tracer. […]
Meanwhile, we established a stable cell line for NanoLuc-ENL YEATS expression. The binding of SR-0813T to […] was also validated using a fluorescence polarization assay (Figure S16).
Using the developed ENL-NanoBRET assay, we then characterized the cellular potency of our developed peptidyl inhibitors. […] The apparent intracellular affinity of tENL-S1f was further evaluated by NanoBRET at various tracer concentrations (Figure 5D). […]
Fluorescence microscopy study with FITC-6AHX-tENL-S1o: […]

[3] = molecular target: T3, 6xHis-tagged ENL YEATS domain (human, UniProt Q03111 1-148); test: BLI
T3 chain: T1 sequence (Q03111 1-148)

[4] = molecular target: T4, AF9 YEATS domain (human, UniProt P42568 1-138); test: BLI
T4 chain: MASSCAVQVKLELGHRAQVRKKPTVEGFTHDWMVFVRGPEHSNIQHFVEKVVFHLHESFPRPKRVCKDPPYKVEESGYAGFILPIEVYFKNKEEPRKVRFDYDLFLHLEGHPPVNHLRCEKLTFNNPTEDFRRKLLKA

[5] = molecular target: T4, AF9 YEATS domain; test: BLI; His-ENL immobilised on Ni-NTA biosensors, peptides in solution at different concentrations (set-up told for ENL YEATS; the other YEATS domains were analysed 'similarly')
[6] = molecular target: T3, 6xHis-tagged ENL YEATS domain
[7] = molecular target: T4, AF9 YEATS domain; test: AlphaScreen or HTRF; competition: AF9 YEATS and its corresponding acylated histone peptide; test peptide varied; n = 3
[8] = molecular target: T3, 6xHis-tagged ENL YEATS domain; test: AlphaScreen or HTRF; competition: biotinylated H3K27cr peptide on streptavidin donor beads, His-ENL YEATS on nickel-chelating (Ni-NTA) acceptor beads; test peptide varied; n = 3
[9] = molecular target: T3, 6xHis-tagged ENL YEATS domain; test: BLI; His-ENL immobilised on Ni-NTA biosensors, peptides in solution at different concentrations (set-up told for ENL YEATS; the other YEATS domains were analysed 'similarly')
[10] = molecular target: T4, AF9 YEATS domain

CC(=O)N[C@H](C(=O)N[C@@H](Cc1ccc(O)cc1)C(=O)N[C@@H](CS)C(=O)N[C@@H](Cc1ccc(O)cc1)C(=O)N[C@@H](CCCCNC(=O)c1ccco1)C(N)=O)C(C)C [tENL-S1f] (Ac-VYCYK(2Furoyl)-NH2)
Selectivity (ENL:AF9) from BLI KD values [1]: 12.0 fold
IC50 ([2]; 0.5 μM SR-0813T tracer, read-out: NanoBRET IC50): 4100 ± 1100 nM
IC50 ([2]; 1.0 μM SR-0813T tracer, read-out: NanoBRET IC50): 4200 ± 1100 nM
IC50 ([2]; 2.5 μM SR-0813T tracer, read-out: NanoBRET IC50, displacement of SR-0813T from NanoLuc-ENL): 6400 ± 1600 nM

Ac-VYCYK(2Furoyl) [tENL-S1f]
Kd [3]: 307 nM
Kd [4]: 3670 nM
fold selectivity for ENL YEATS over AF9 [5]: 12 fold
decrease in qPCR of the ENL target genes HOXA9, MEIS1, MYB and MYC in MOLM-13 cells (endogenous ENL) treated with tENL-S1f at 10 and 50 μM [6]: 30%
growth of MV4;11 cells (MLL-r leukemia line sensitive to ENL depletion; endogenous ENL) treated with tENL-S1f for 14 days [6]: 50%

YDVYCYK(Butyryl) [ENL-S1]
fold lower potency (IC50) toward AF9 YEATS than toward ENL YEATS [7]: 4 fold
IC50 [8]: 63 nM
Kd [9]: 36.3 nM
kon [9]: 62300 M⁻¹ s⁻¹
IC50 [10]: 250 nM

Reference: PMC11046469, “Leveraging a Phage-Encoded Noncanonical Amino Acid: A Novel Pathway to Potent and Selective Epigenetic Reader Protein Inhibitors” (ACS Central Science, 2024)
